Measurements reported in patent publication US20250042994A1.

Target: cynomolgus monkey CD19 on peripheral blood B cells (cynomolgus monkey (Macaca fascicularis))
Test: FACS, cynomolgus PBMC, CD20+ B cells

Proportion of chimeric antibody positive cells to B cells (%) at 1 nM [%] | Proportion of chimeric antibody positive cells to B cells (%) at 10 nM [%] | Proportion of chimeric antibody positive cells to B cells (%) at 100 nM [%] | Binder
2 | 1 | 12 | F3.23.10 (antibody, human IgG1, V domains shown) VH: EFQLQQSGPELVKPGASVKISCKASDYSFTDYNMNWVKQSNGASLEWIGIINPNFGSTSYNQKFKGKATLTVDQSSSTAFMQLNSLTSEDSAVYYCARSEYYGSSGFAYWGQGTLVTVSA VL: DVVVTQTPLSLPVSFGDQVSISCRSSQSLVNSYGNTYLSWYLHKPGQSPQLLIYGISNRFSGVPDRFSGSGSGTDFTLKITTIKPEDLGMYYCLQGTHQPWTFGGGTKLEIK
2 | 3 | 9 | F4.180.1 (antibody, human IgG1, V domains shown) VH: EVQLQQSAPELVKPGASVKMSCKTSGYTFTENIIHWVKQTHGKSLEWIGGINPDNGGTSYHQKFKGRTTLTIDKSSSTAYMELRSLTSDDSAVFFCARQAPLYWYFDIWGAGTTVTVSS VL: DIVLTQSPASLAVSLGQRATISCRASESVDSYGNSLMHWFQQKPGQPPRLLIYRASNLESGIPARFSGSGSRTDFTLTITPVEADDVATYYCQQSNEDPWTFGGGTKLEIK
